{"source": "patent US20170008928A1", "about": "“NOVEL PEPTIDES AND PEPTIDE DERIVATIVES AND USES THEREOF” (Novo Nordisk A/S, priority 2015, published 2017)", "binders": {"B1": {"name": "Asp-Phe(4-sulfomethyl)-Nle-Gly-Trp-Nle-DMeAsp-MePhe-amide (peptide)", "peptide": "D[Phe(4-CH2SO3H)][Nle]GW[Nle][dNMeD][NMeF]-NH2", "modifications": "N-terminus assumed", "SMILES": "CCCC[C@H](NC(=O)[C@H](Cc1ccc(CS(=O)(=O)O)cc1)NC(=O)[C@@H](N)CC(=O)O)C(=O)NCC(=O)N[C@@H](Cc1c[nH]c2ccccc12)C(=O)N[C@@H](CCCC)C(=O)N(C)[C@H](CC(=O)O)C(=O)N(C)[C@@H](Cc1ccccc1)C(N)=O", "notes": "X = Nle or Nal"}, "B2": {"name": "2-[2-[2-[[2-[2-[2-[[(4S)-4-Carboxy-4-(17-carboxyheptadecanoylamino)butanoyl]amino]ethoxy]ethoxy]acetyl]amino]ethoxy]ethoxy]acetyl-DAsp-Phe(4-sulfomethyl)-Nle-Gl … (peptide)", "peptide": "{C18 diacid-γGlu-AEEA-AEEA}-[dD][Phe(4-CH2SO3H)][Nle]GW[Nle][dNMeD][NMeF]-NH2", "notes": "X = Nle or Nal"}, "B3": {"name": "bAsp-Phe(4-sulfomethyl)-Nle-Gly-Trp-Nle-DMeAsp-MePhe-amide (peptide)", "peptide": "[βAsp][Phe(4-CH2SO3H)][Nle]GW[Nle][dNMeD][NMeF]-NH2", "modifications": "N-terminus assumed", "SMILES": "CCCC[C@H](NC(=O)[C@H](Cc1ccc(CS(=O)(=O)O)cc1)NC(=O)C[C@H](N)C(=O)O)C(=O)NCC(=O)N[C@@H](Cc1c[nH]c2ccccc12)C(=O)N[C@@H](CCCC)C(=O)N(C)[C@H](CC(=O)O)C(=O)N(C)[C@@H](Cc1ccccc1)C(N)=O", "notes": "X = Nle or Nal"}, "B4": {"name": "17-Carboxyheptadecanoyl-Gly-Ser-Ser-Gly-Ser-Ser-Asp-sTyr-Leu-Gly-Trp-Nle-DMeAsp-MePhe-amide (peptide)", "peptide": "{C18 diacid}-GSSGSSD[sY]LGW[Nle][dNMeD][NMeF]-NH2", "SMILES": "CCCC[C@H](NC(=O)[C@H](Cc1c[nH]c2ccccc12)NC(=O)CNC(=O)[C@H](CC(C)C)NC(=O)[C@H](Cc1ccc(OS(=O)(=O)O)cc1)NC(=O)[C@H](CC(=O)O)NC(=O)[C@H](CO)NC(=O)[C@H](CO)NC(=O)CNC(=O)[C@H](CO)NC(=O)[C@H](CO)NC(=O)CNC(=O)CCCCCCCCCCCCCCCCC(=O)O)C(=O)N(C)[C@H](CC(=O)O)C(=O)N(C)[C@@H](Cc1ccccc1)C(N)=O", "notes": "X = Nle or Nal; The Gly-Ser-Ser-Gly-Ser-Ser linker is written as part of the chain"}, "B5": {"name": "Gastrin-17 (Gastrin I (human), Bachem, H-3085, Pyr-Gly-Pro-Trp-Leu-Glu-Glu-Glu-Glu-Glu-Ala-Tyr-Gly-Trp-Met-Asp-Phe-NH2, non-sulfated) (peptide)", "peptide": "EGPWLEEEEEAYGWMDF", "modifications": "N-terminal pyroglutamic acid (pE, Pyr); C-terminal amide; Tyr non-sulfated"}, "B6": {"name": "2-[2-[2-[[2-[2-[2-[[(4S)-4-Carboxy-4-(17-carboxyheptadecanoylamino)butanoyl]amino]ethoxy]ethoxy]acetyl]amino]ethoxy]ethoxy]acetyl-Asp-Phe(4-sulfomethyl)-Nle-Gly … (peptide)", "peptide": "{C18 diacid-γGlu-AEEA-AEEA}-D[Phe(4-CH2SO3H)][Nle]GW[Nle][dNMeD][NMeF]-NH2", "notes": "X = Nle or Nal"}, "B7": {"name": "Glu-sTyr-Leu-Gly-Trp-Gln-DMeAsp-MePhe-amide (peptide)", "peptide": "E[sY]LGWQ[dNMeD][NMeF]-NH2"}, "B8": {"name": "2-[2-[2-[[2-[2-[2-[[(4S)-4-Carboxy-4-(17-carboxyheptadecanoylamino)butanoyl]amino]ethoxy]ethoxy]acetyl]amino]ethoxy]ethoxy]acetyl-bAsp-Phe(4-sulfomethyl)-Nle-Gl … (peptide)", "peptide": "{C18 diacid-γGlu-AEEA-AEEA}-[βAsp][Phe(4-CH2SO3H)][Nle]GW[Nle][dNMeD][NMeF]-NH2", "SMILES": "CCCC[C@H](NC(=O)[C@H](Cc1ccc(CS(=O)(=O)O)cc1)NC(=O)C[C@H](NC(=O)COCCOCCNC(=O)COCCOCCNC(=O)CC[C@H](NC(=O)CCCCCCCCCCCCCCCCC(=O)O)C(=O)O)C(=O)O)C(=O)NCC(=O)N[C@@H](Cc1c[nH]c2ccccc12)C(=O)N[C@@H](CCCC)C(=O)N(C)[C@H](CC(=O)O)C(=O)N(C)[C@@H](Cc1ccccc1)C(N)=O", "notes": "X = Nle or Nal"}, "B9": {"name": "2-[2-[2-[[2-[2-[2-[[(4S)-4-Carboxy-4-(17-carboxyheptadecanoylamino)butanoyl]amino]ethoxy]ethoxy]acetyl]amino]ethoxy]ethoxy]acetyl-Glu-sTyr-Leu-Gly-Trp-Nle-DMeAs … (peptide)", "peptide": "{C18 diacid-γGlu-AEEA-AEEA}-E[sY]LGW[Nle][dNMeD]F-NH2", "SMILES": "CCCC[C@H](NC(=O)[C@H](Cc1c[nH]c2ccccc12)NC(=O)CNC(=O)[C@H](CC(C)C)NC(=O)[C@H](Cc1ccc(OS(=O)(=O)O)cc1)NC(=O)[C@H](CCC(=O)O)NC(=O)COCCOCCNC(=O)COCCOCCNC(=O)CC[C@H](NC(=O)CCCCCCCCCCCCCCCCC(=O)O)C(=O)O)C(=O)N(C)[C@H](CC(=O)O)C(=O)N[C@@H](Cc1ccccc1)C(N)=O", "notes": "X = Nle or Nal"}}, "key": {"[1]": {"target": "T1, human cholecystokinin-1 receptor (human, UniProt P32238 1-428)", "T1 construct": "whole, on cells; also called CCK-1R; CCK-1 receptor", "T1 sequence (looked up)": "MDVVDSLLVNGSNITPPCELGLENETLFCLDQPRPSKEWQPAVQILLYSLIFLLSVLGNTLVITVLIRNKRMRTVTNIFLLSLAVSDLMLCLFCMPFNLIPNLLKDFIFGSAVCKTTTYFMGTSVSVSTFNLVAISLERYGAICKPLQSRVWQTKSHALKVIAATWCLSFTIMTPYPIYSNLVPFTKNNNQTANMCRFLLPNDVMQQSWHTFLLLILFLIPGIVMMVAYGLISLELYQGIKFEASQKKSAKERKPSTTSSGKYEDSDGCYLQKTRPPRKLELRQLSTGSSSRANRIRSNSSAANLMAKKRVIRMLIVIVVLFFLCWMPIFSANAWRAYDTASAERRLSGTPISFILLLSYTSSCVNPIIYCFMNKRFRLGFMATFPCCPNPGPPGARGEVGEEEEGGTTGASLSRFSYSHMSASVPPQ", "experiment": "SPA competition vs [125I]-CCK-8s, membranes", "method": "(§1) CCK receptor binding assays were performed in 96-well Optiplates (Cat #6005290, PerkinElmer, Waltham, Mass., USA) in a total volume of 200 μl per well.\n(§2) The plates were sealed and incubated in the dark at +22° C. for 2 hours on a IKA MTS plate shaker (IKA-Werke D-79219 Staufen) set at 300 rpm and thereafter centrifuged at 1500 rpm for 10 minutes in a Heraeus Multifuge 3s centrifuge. SPA bead light emission was measured in a TopCount NXT (PerkinElmer) for 2 min/well after a delay of 60 min."}, "[2]": {"target": "T1, human cholecystokinin-1 receptor", "experiment": "cell-based or functional assay"}, "[3]": {"target": "T2, human cholecystokinin-2 receptor (human, UniProt P32239 1-447)", "T2 sequence (looked up)": "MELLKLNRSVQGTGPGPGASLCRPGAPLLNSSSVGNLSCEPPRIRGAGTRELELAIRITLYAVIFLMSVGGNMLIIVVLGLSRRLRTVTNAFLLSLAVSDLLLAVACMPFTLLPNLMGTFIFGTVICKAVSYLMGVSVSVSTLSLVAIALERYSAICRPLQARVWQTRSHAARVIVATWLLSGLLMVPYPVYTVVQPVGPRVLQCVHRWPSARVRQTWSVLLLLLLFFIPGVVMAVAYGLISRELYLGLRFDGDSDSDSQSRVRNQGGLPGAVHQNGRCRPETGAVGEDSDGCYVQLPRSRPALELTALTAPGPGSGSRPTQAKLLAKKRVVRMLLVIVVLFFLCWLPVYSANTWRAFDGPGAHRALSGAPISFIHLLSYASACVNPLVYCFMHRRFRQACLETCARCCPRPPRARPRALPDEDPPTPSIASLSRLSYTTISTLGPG", "experiment": "cell-based or functional assay"}, "[4]": {"target": "T2, human cholecystokinin-2 receptor", "experiment": "SPA competition vs [125I]-CCK-8s, membranes", "method": "as §1, §2"}}, "note": "Starred links: 1 amine or outer side, 2 acyl side, 3 side chain; linkers in the order of their positions; H or OH if unused. Non-standard residues stand in square brackets, D forms with d. No end group written: not given here. *: point of attachment. Phe(4-CH2SO3H) = N[C@@H](Cc1ccc(CS(=O)(=O)O)cc1)C(=O)O; sY = N[C@@H](Cc1ccc(OS(=O)(=O)O)cc1)C(=O)O; C18 diacid = O=C(O)CCCCCCCCCCCCCCCCC(=O)*; γGlu = O=C(O)[C@H](CCC(=O)[*:2])N[*:1]; βAsp = O=C(O)[C@H](CC(=O)[*:2])N[*:1]; NMeF = CN[C@@H](Cc1ccccc1)C(=O)O; dNMeD = CN[C@H](CC(=O)O)C(=O)O; Nle = CCCC[C@H](N)C(=O)O; AEEA = NCCOCCOCC(=O)O"}
{"binder": "B1", "values": [{"measurement": "IC50", "setting": "[1]", "value": 0.046, "unit": "nM"}, {"measurement": "EC50 (CCK-1R)", "setting": "[2]", "value": 0.25, "unit": "nM"}, {"measurement": "EC50 (CCK-2R)", "setting": "[3]", "value": "> 1000", "unit": "nM"}]}
{"binder": "B2", "values": [{"measurement": "IC50", "setting": "[1]", "value": 0.072, "unit": "nM"}, {"measurement": "EC50 (CCK-1R)", "setting": "[2]", "value": 0.37, "unit": "nM"}]}
{"binder": "B3", "values": [{"measurement": "IC50", "setting": "[4]", "value": 2900, "unit": "nM"}, {"measurement": "EC50 (CCK-1R)", "setting": "[2]", "value": 0.19, "unit": "nM"}, {"measurement": "EC50 (CCK-2R)", "setting": "[3]", "value": "> 1000", "unit": "nM"}]}
{"binder": "B4", "values": [{"measurement": "IC50", "setting": "[4]", "value": 370, "unit": "nM"}, {"measurement": "EC50 (CCK-1R)", "setting": "[2]", "value": 0.61, "unit": "nM"}, {"measurement": "EC50 (CCK-2R)", "setting": "[3]", "value": 17, "unit": "nM"}]}
{"binder": "B5", "values": [{"measurement": "IC50", "setting": "[1]", "value": 340, "unit": "nM"}, {"measurement": "EC50 (CCK-1R)", "setting": "[2]", "value": 530, "unit": "nM"}]}
{"binder": "B6", "values": [{"measurement": "IC50", "setting": "[1]", "value": 0.26, "unit": "nM"}]}
{"binder": "B7", "values": [{"measurement": "IC50", "setting": "[1]", "value": 0.085, "unit": "nM"}, {"measurement": "EC50 (CCK-2R)", "setting": "[3]", "value": "> 1000", "unit": "nM"}]}
{"binder": "B8", "values": [{"measurement": "IC50", "setting": "[1]", "value": 0.063, "unit": "nM"}, {"measurement": "EC50 (CCK-1R)", "setting": "[2]", "value": 0.36, "unit": "nM"}]}
{"binder": "B9", "values": [{"measurement": "IC50", "setting": "[4]", "value": 480, "unit": "nM"}, {"measurement": "EC50 (CCK-1R)", "setting": "[2]", "value": 0.37, "unit": "nM"}, {"measurement": "EC50 (CCK-2R)", "setting": "[3]", "value": 94, "unit": "nM"}]}
